Source: PMC12905440, “Biochemical principles of miRNA targeting in flies”

What was measured:
[1] = molecular target: T1, Ago1 (RISC, embryo lysate) (Drosophila w[*]; AGO2[414] embryos, 0-8 …, UniProt A1Z9J5 1-950); assay: competition; let-7 guide; reference; RBNS: 20 mM HEPES-KOH pH 7.9, 100 mM KOAc, 3.5 mM Mg(OAc)2, 0.05% CHAPS, 2 mM DTT, 8% glycerol, BSA, tRNA, 25 C, 2 h; filter binding: 25 mM HEPES-KOH pH 7.9, 110 mM KOAc, 3.5 mM Mg(OAc)2, 2 mM DTT, 25 C; competition: 18 mM HEPES-KOH pH 7.4, 100 mM KOAc, 3 mM Mg(OAc)2, 5 mM DTT, 25 C; conditions: protein: native; g2-21 paired
FLAG-Ago1 (RISC) [2] = molecular target: T2, FLAG-Ago1 (RISC) (Drosophila melanogaster, UniProt A1Z9J5 1-950); assay: RNA Bind-n-Seq (filter binding, sequencing, MLE); miR-11 guide; 20 mM HEPES-KOH pH 7.9, 100 mM potassium acetate, 3.5 mM magnesium acetate, 0.05% CHAPS, 2 mM DTT, 8% glycerol, 0.05 ug/ul BSA, 0.01 mg/ml yeast tRNA, 100 nM RNA library, 25 C, 2 h; conditions: protein: recombinant; tags: FLAG
FLAG-Ago1 (RISC) [3] = molecular target: T2, FLAG-Ago1 (RISC); assay: RNA Bind-n-Seq (filter binding, sequencing, MLE); let-7 guide; 20 mM HEPES-KOH pH 7.9, 100 mM potassium acetate, 3.5 mM magnesium acetate, 0.05% CHAPS, 2 mM DTT, 8% glycerol, 0.05 ug/ul BSA, 0.01 mg/ml yeast tRNA, 100 nM RNA library, 25 C, 2 h; conditions: protein: recombinant; tags: FLAG; t2-t8 plus t1A
[4] = molecular target: T1, Ago1 (RISC, embryo lysate); assay: competition; let-7 guide; RBNS: 20 mM HEPES-KOH pH 7.9, 100 mM KOAc, 3.5 mM Mg(OAc)2, 0.05% CHAPS, 2 mM DTT, 8% glycerol, BSA, tRNA, 25 C, 2 h; filter binding: 25 mM HEPES-KOH pH 7.9, 110 mM KOAc, 3.5 mM Mg(OAc)2, 2 mM DTT, 25 C; competition: 18 mM HEPES-KOH pH 7.4, 100 mM KOAc, 3 mM Mg(OAc)2, 5 mM DTT, 25 C; conditions: protein: native; g2-21 paired, G:U at g4 and g5
[5] = molecular target: T1, Ago1 (RISC, embryo lysate); assay: competition; let-7 guide; nearly same affinity as fully complementary; RBNS: 20 mM HEPES-KOH pH 7.9, 100 mM KOAc, 3.5 mM Mg(OAc)2, 0.05% CHAPS, 2 mM DTT, 8% glycerol, BSA, tRNA, 25 C, 2 h; filter binding: 25 mM HEPES-KOH pH 7.9, 110 mM KOAc, 3.5 mM Mg(OAc)2, 2 mM DTT, 25 C; competition: 18 mM HEPES-KOH pH 7.4, 100 mM KOAc, 3 mM Mg(OAc)2, 5 mM DTT, 25 C; conditions: protein: native; g2-21 paired, G:U at g4

T2 sequence (A1Z9J5 entry or part of it): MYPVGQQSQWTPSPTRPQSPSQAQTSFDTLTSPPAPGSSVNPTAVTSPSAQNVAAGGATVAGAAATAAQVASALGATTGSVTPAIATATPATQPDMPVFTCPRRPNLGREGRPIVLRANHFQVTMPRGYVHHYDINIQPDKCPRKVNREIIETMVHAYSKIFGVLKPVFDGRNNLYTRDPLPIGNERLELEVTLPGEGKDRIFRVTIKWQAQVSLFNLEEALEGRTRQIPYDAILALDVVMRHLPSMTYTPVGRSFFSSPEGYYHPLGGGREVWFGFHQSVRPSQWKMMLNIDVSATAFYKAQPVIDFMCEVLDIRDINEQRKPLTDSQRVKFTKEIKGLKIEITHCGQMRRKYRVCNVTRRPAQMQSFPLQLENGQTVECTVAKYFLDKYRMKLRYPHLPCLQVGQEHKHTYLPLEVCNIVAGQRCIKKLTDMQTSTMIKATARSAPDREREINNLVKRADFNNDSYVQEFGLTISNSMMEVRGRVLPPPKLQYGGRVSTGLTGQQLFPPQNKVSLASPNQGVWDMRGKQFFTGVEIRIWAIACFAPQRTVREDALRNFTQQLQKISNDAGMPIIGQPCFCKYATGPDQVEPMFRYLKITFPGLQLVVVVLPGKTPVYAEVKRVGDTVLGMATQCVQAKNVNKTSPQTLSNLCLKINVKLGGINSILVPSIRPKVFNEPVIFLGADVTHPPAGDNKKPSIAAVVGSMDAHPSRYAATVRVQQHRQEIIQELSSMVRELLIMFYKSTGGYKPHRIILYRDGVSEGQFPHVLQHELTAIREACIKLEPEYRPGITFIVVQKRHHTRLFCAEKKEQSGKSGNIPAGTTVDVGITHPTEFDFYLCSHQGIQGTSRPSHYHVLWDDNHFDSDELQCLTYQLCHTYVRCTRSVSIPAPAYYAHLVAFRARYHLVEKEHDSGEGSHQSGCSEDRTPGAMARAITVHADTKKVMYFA
T1 sequence (A1Z9J5 entry or part of it): as above

B1: let-7 guide / g2-21 complementary target (dsRNA)
RNA 1: GAUACUAUACAACCUACUACCUCAACCU
RNA 2: UGAGGUAGUAGGUUGUAUAGU
modifications: 2'-O-methyl C and U around a phosphorothioate (CmCpsmU) in target
- binding result [1]: binds

B2: miR-11 / 6mer (mixed)
RNA 1: UGUGAU
RNA 2: CAUCACAGUCUGAGUUCUUGC
modifications: guide 5' phosphate
- Kd (FLAG-Ago1 (RISC) [2]): 0.388 ± 0.0906 nM

B3: let-7 / 8mer (mixed)
RNA 1: CUACCUCA
RNA 2: UGAGGUAGUAGGUUGUAUAGU
modifications: guide 5' phosphate
- Kd (FLAG-Ago1 (RISC) [3]): 0.005 ± 0.00169 nM

B4: miR-11 / 6mer-A1 (mixed)
RNA 1: GUGAUA
RNA 2: CAUCACAGUCUGAGUUCUUGC
modifications: guide 5' phosphate
- Kd (FLAG-Ago1 (RISC) [2]): 0.404 ± 0.0996 nM

B5: let-7 guide / g2-21 target, G:U at positions 4-5 (dsRNA)
RNA 1: GAUACUAUACAACCUACUAUUUCAACCU
RNA 2: UGAGGUAGUAGGUUGUAUAGU
modifications: 2'-O-methyl C and U around a phosphorothioate (CmCpsmU) in target
- binding signal [4]: 120 fold lower affinity

B6: let-7 guide / g2-21 target, G:U at position 4 (dsRNA)
RNA 1: GAUACUAUACAACCUACUACUUCAACCU
RNA 2: UGAGGUAGUAGGUUGUAUAGU
modifications: 2'-O-methyl C and U around a phosphorothioate (CmCpsmU) in target
- binding result [5]: binds
